The results in this text go back to publication PMC10580950.

Data set [1] relates to OxyR C212D (mimic of overoxidized OxyR) (Streptomyces gilvosporeus F607). The experiment in a line: MST. Particulars: overoxidized OxyR (C212D mimic per Results); EMSA: 20 mM Tris pH 7.5, 60 mM KCl, 2 mM EDTA, 0.5 mM DTT, 4% Ficoll, 1 ug poly(dI-dC), 20 uL, 15-25 C, 30 min; MST: 50 mM HEPES pH 7.4, 0.05% Tween 20, room ….
Data set [2] deals with OxyR (Streptomyces gilvosporeus F607). The experiment in a line: MST. Particulars: EMSA: 20 mM Tris pH 7.5, 60 mM KCl, 2 mM EDTA, 0.5 mM DTT, 4% Ficoll, 1 ug poly(dI-dC), 20 uL, 15-25 C, 30 min, MST: 50 mM HEPES pH 7.4, 0.05% Tween 20, room ….

On to psgnM (redox EMSA and MST), for which the equilibrium dissociation constant (Kd) was determined as 324 nM in data set [1], 45.9 nM in data set [2] (oxidized OxyR (H2O2)) and 135 nM in data set [2] (reduced OxyR (DTT)).
